This note sets out measurements from PMC4498696.

Experiment [1] concerns the target biotinylated prefusion RSV F DS-Cav1, subtype B (respiratory syncytial virus, subtype B | not stated) (UniProt P13843).
The target is the same in experiment [2]. Put plainly: Luminex bead binding assay; biotinylated RSV F proteins coupled to avidin-coated MagPlex beads (1 μg per 50,000 beads); IgG in 10-fold serial dilutions 1 μM to 0.1 pM; PE-conjugated anti-human IgG Fc; PBS, 0.1% BSA, 0.05% Tween 20.
In experiment [3] the target is full-length prefusion F N426D (RSV F residues 1-574 with the DS-Cav1 stabilizing mutations and N426D (respiratory syncytial virus, strain not stated) (UniProt P03420)). Put plainly: flow cytometry on cells. (In general: In flow cytometry, cells or beads pass a laser one at a time.)
In experiment [4] the target is purified prefusion F N426D (respiratory syncytial virus, strain A2 | not stated) (UniProt P03420). Put plainly: ELISA. (In general: ELISA stands for enzyme-linked immunosorbent assay.)
The target of experiment [5] is AM14 IgG (human). Put plainly: ELISA.

Broadly, the EC50 is the concentration at which the effect is half-maximal.

AM14 IgG (human), sequence (heavy, as listed by the source, chain 1 of 2): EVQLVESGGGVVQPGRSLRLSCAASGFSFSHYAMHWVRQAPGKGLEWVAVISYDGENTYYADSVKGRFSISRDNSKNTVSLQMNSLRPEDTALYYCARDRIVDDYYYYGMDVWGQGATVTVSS
AM14 IgG (human), sequence (light, as listed by the source, chain 2 of 2): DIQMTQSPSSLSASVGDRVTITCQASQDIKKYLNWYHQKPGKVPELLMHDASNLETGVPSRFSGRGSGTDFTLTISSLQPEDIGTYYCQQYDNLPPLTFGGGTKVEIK

Regarding AM14 IgG (antibody), the IC50 of neutralisation of RSV subtype B strain 9320 (F of the virus), microneutralization on HEp-2 cells in experiment [1] was found to be 4.6 ng/mL. In experiment [1], this substance returned an IC50 of neutralisation of RSV subtype B strain 18537 (F of the virus), microneutralization on HEp-2 cells of 30.8 ng/mL. Further, the EC50 in experiment [2] is 0.18 nM. Besides, the fold reduction of binding against wild-type prefusion F worked out at 4 fold in experiment [3] and 100 fold in experiment [4].

“cleaved monomeric RSV F (residues 1-524, without the foldon trimerization motif) (from UniProt P03420 26-109; P03420 26-524) (domain or fragment)” returned a fold decrease in other in experiment [5] of 100 fold.
